{"source": "the DeepSol protein solubility set", "data": [{"assay": "soluble on expression in E. coli; label from the status in PepcDB or PDB records", "values": [{"sequence": "ELLVVTGMSGAGKSLVIQSLEDMGFFCVDNLPPVLLPKFVELMAQGNPSLQKVAIAIDLRGKELFKSLVKEIDIIKSRNDVILDVMFLEAKTEKIISRYKESRRAHPLNEQGQRSLIDAINEEREHLSEIRSIANYVIDTTKLKPKELKQRISKFYLDENFETFTINVTSFGFKHGIQMDADLVFDVRFLPNPYYVEELRPFTGLDEPVYNYVMKWKETQIFFDKLTDLLKFMIPGYKKEGKSQLVIAIGCTGGQHRSVALAKRLAEYLNEIFEYNVYVHHRDAHIE", "soluble on expression in E. coli": "not soluble"}, {"sequence": "MTKPAKIGVLLANLGTPDSPTPKSISRYLWQFLTDPRVVDLPRCKWYPLLKAIILPLRSKRIAKNYQAIWTEQGSPLLAISRQQKDALQAYLDNQNIDTQVEIAMTYGNPSMQSAVKNLLKNQVERIIVLPLYPQYSSSTTGAVFDAFANALKEERGLLPFDFIHSYHIDENYINALADSIKVRLKSDEFLLFSYHGIPLRYEKMGDYYREHCKQTTIAVVNKLGLTENQWRMTFQSRFGREEWLQPYTDKFLESAAAQNIQKIAVICPGFSVDCLETIEEIDEENRENFLNNGGQSYQYIPALNVEHAHIEMMGKLILEKLT", "soluble on expression in E. coli": "not soluble"}, {"sequence": "AHHHHHHGSHFIKHFEEELIALSNAPHRGGLTKARGFFFMKVEKNYRGDYKKDCLEFERKNGLRSFVGFMTAVDIEKVMAIKSLGNVEVYLTAGISNPAIAGEEPKPWEPGTINMAIVIDEGLTIGAMANAIMTATEAKTYTLLKLGYNATGTTSDGIGVFARQGNVEWAGTATRLGFEIGKAVREALEESIKKWEKIKSL", "soluble on expression in E. coli": "soluble"}, {"sequence": "MSLATIDSMNKDTTRLSDGPDWTFDLLDVYLAEIDRVAKLYRLDTYPHQIEVITSEQMMDAYSSVGMPINYPHWSFGKKFIETERLYKHGQQGLAYEIVINSNPCIAYLMEENTITMQALVMAHACYGHNSFFKNNYLFRSWTDASSIVDYLIFARKYITECEERYGVDEVERLLDSCHALMNYGVDRYKRPQKISLQEEKARQKSREEYLQSQVNMLWRTLPKREEEKTVAEARRYPSEPQENLLYFMEKNAPLLESWQREILRIVRKVSQYFYPQKQTQVMNEGWATFWHYTILNHLYDEGKVTERFMLEFLHSHTNVVFQPPYNSPWYSGINPYALGFAMFQDIKRICQSPTEEDKYWFPDIAGSDWLETLHFAMRDFKDESFISQFLSPKVMRDFRFFTVLDDDRHNYLEISAIHNEEGYREIRNRLSSQYNLSNLEPNIQIWNVDLRGDRSLTLRYIPHNRAPLDRGRKEVLKHVHRLWGFDVMLEQQNEDGSVELLERCPPRMGNLEGHHHHHH", "soluble on expression in E. coli": "soluble"}, {"sequence": "MGSDKIHHHHHHVGALLSKITATDLASTLTGDPEALHVHLTLVARDVSIKGHTVKIHCHCLTVDGNGRVQPHRLAEFMRNAVVDYAIPRSKVADAKARDLKYNSTEATTELVERAKRSFTDLANTGEGGEMLLFLLAERFLKLPQILCKMDLKTDTRMHYHGADGVYAGVTPSGTLKLYWGESKIYKKVGDAIRDCLASLAPFLIEPEHEDAERERDLILLSDKADLTNSELTGALKRYFDRSSEMSTRVQYCGVALVGFDAPFYPASDVKVLADQIVDGSRRALSDWSDKIGARLAAEKLSDMEIQLFCIPLPSADGFRAAFLKAMGIKGG", "soluble on expression in E. coli": "not soluble"}, {"sequence": "MSLSMSLRDQLLKAGLVNEKQAKQATKQKQKQQRLEHKNQVDKDDSQRQAAEQAKAEKLARDQELNRQQQEKAEKKAKAAQIKQLIEGTRLPKLESDDYYNFVDAKKVKRIAVNDLIRDKLSRGSLAIVSYDGRYEIVPRDAAVKIQERDPRRVVLLNVQSQEPDEDDPYKDYVVPDDLMWEGGSHHHHHH", "soluble on expression in E. coli": "soluble"}, {"sequence": "MLILRKDSKFDRKSIEELKELAEVLYNPVKTIVQIRKADPKYQIGSGLVERIAENIKEENIEIVIVGNILTPSQKYNLAKKFKVEVIDKIELVLRIFYKHARTKEAQLQVRLAELQYELPRAREKVRLAKMGEQPGFGGYGDYEVEKYYQKVKREIATIKRKLEKLREHRRVARKGRAKFDTVGLIGYTNAGKTSLLNALTGENKESKNQVFTTLTTTTRAIKGIKRKILVTDTVGFIDDLPPFMIEAFLSTIEESADSDLILIVVDASDDIEEIKRKLKVNHEILSKINCKAPIITVFNKVDKITKEKKRKILEELDRYIVNPIFVSAKYDINMDLLKEMIIEHLNLSIGTIETDNPRLISYLYENTEIIEDILEDNKHIITFRAKERDVNRILKLHKSAVLEHHHHHH", "soluble on expression in E. coli": "not soluble"}, {"sequence": "RKDMEMNINFNMSYQKNKLLSLSGEYNGMHMTASDITPIGSLYGAGQNGGDNNVVYQIVGQPLGVFYLPHCKGLKENELGGYSYDIEDLNDDGEIDFSDGGDRYIAGQATPKVTIGSNISFRYKSFDIAMQINGAFGHKIFNGTGLAYTNMSIFPDYNVLKGAPEKNIIDQNVSDYWLEKGDYVNIEHITIGYNIPMKSKAVKSLRLSAGISNLATITGYSGLTPMINSYVVSNTLGIDDKRTYPLYRTYSLGLSIQF", "soluble on expression in E. coli": "not soluble"}, {"sequence": "MGSDKIHHHHHHMQRVRQICVVGGSGFVGSALVHRLSTAGYDVKVLTRRRESSKHLILLPNVQVTECDVFNEASLSGQLHGQDAVINLAGILHESGNATFESIHVDLATRIADICCKQGVPRLLHMSALKASADAKSAYLRSKAAGEQAVLRRADELQVTVFRPSVIFGRGDHFLSMLANVVNMMPVVAVAKPNAKFQPIWVEDVAYVFLTALENVSTYGRSIDLGGPQVYTLKQLIELTALLLGKKRRIVSLNDKLSYYQAYALELMPFKLMTRDNLLSMEVDSVCDGPISEFFGHSLASLEAIAPEYIAGETPRSAYERFRSLAGRTFSRR", "soluble on expression in E. coli": "not soluble"}, {"sequence": "MSLKAIQFDLSIPKYALSKAMGKMNSSLYVESPFSCLQLRDVEKPALPNDHWVEIKVKYGGICGSDLNLIFLNDSPATSPFVSFPFTLGHEMVGTISKARKSVTNLQVGQRVVIDPLLSCEVRGITPVCSECANGNYNLCHHMNDGDIAPGLLTGTCKDTGGSWGRYLVAHQSQVISLPSSVDDDNGVLVEPFACALHAVLQNRPKPSDTVFVIGSGVIGICVIAAIRALEIPCKIVTLAKHPFQAELAKQFGADEIVFLSRKRDYVTAVAESFNANVLHPVFGEPIVHGGADIVYECVGNRKSLHDSLRFARKGGKVVLIGLASFIDNLDMTMIWLNELEVKGSFTYGMEDWQGGKKRTLQIAVDLIADGKVDLSPLITHRFPLEAYREALATAANKKKGQTMKVVFEEGHHHHHH", "soluble on expression in E. coli": "not soluble"}, {"sequence": "MTVFVDHKIEYMSLEDDAELLKTMAHPMRLKIVNELYKHKALNVTQIIQILKLPQSTVSQHLCKMRGKVLKRNRQGLEIYYSINNPKVEGIIKLLNPIQ", "soluble on expression in E. coli": "soluble"}, {"sequence": "MGSDKIHHHHHHMKKTIYKVLVSFYQYVGLGKKFHPSHDTVLIIGGSSNELGIELCETFIEDYHTKVINIDTIDSINGKNARRSEKLYTFISCKDFSDIKCLEESMLYLQNLEIIPTVLINNMQEGIESTLLKEDKFLRLDEESLNEFEKIVRYNLQSVILITKFCLSNIFPKVQAEAQEKAKGFYIVNISSVLTLKPCKSGTHFITSKCGINSFHDGITSELKLKDSNLNVKTLIAYLPSFESEAHWKRLSPSISKHLVHCLLEGRYGDTILESKRSIGDILLITGFKSSFT", "soluble on expression in E. coli": "not soluble"}, {"sequence": "SAEDGLPKIYSHPPTESSKTPTAATIFFGADNAIPKSETTITSEGDHVTSVNEYMLESDFSTTTDNKLTAKKEKLKSEDDMGTDFIKSTTHLQKEITSLTGTTNSITRDSITEHFMPVKIGNISSPVTTVSLIDFSTDIAKEDILLATIDTGDAEISITSEVSGTLKDSSAGVADAPAFPRKKDEADMSNYNSSIKSNVPADEAVQVTDSIIPEAEIPPAPEESFTTIPDITALEEEKITEIDLSVLEDDTSAVATLTDSDEKFITVFELTTSAEKDKDKREDTLLTDEETTEGASIGMERDTANEAETHSVLLTAVESRYDFVVPASIATNLVEESSTEEDLSETDNTETVPKITEPFSGTTSVLDTPDYKEDTSTTETDIFELLKEEPDEFMI", "soluble on expression in E. coli": "not soluble"}, {"sequence": "MSLNIVSMAREASSHKNSGKKKAIVKFIIRTLLHYSYIKKMNDNFAHDERKMLFKKQPNFLTKCITPYLRNGLSRQEIIDILVKHYDWFEYKFSTDARHQIYDDVLTLYKLEIDEQDYLINLSFDRNSRKEGELTLTLTDSKYNKYYVLAFTVVDNDIYIGCMQGGANDNGFSKLFTKSIYGLRPKSFMVETLRLLAVNLNINHIYAVKNSAHIYTAKRYGKKSKMIGLDYDRLWKEHNGESHNDYFYVLPIKSERKAMEDIKRPKRKMYRERYAWLDNYDKELKNTLDYICNEGHHHHHH", "soluble on expression in E. coli": "not soluble"}, {"sequence": "MGSDKIHHHHHHMASNITGFELFKSNPNWQELPDSFWEFCSAHGRVRHYAAKQFLFFFGEESNSVYFLLKGRIQILLMSEFTEKIFRILQPPAFFPEVVLDSKTYPYAALTAEASDVFVLDRKALVQYFKENPSTLLPFYQNMALDLRRAYRQIKNIALGDARSRLGAKLFALAHVHGQETPEGILITVPLTATELAGMCSLARESVSRILSELRDLGILKMEKKQITISDLEQLRSWIHERQNSL", "soluble on expression in E. coli": "not soluble"}, {"sequence": "MTALETQLTEIVEKEQGQKIIPFLQKLTQEERESLIPCLSRLEEYYNKFVQLEERTYGTRATSGQHHIIDLAALVIFPLKEFRKHEWGINTAHLNEIAAWHIPTWLDSYFVEGEGKEFGGFYNMDYEILMDWIERGILTISPSPQTIAGYLVNYIHTTPVLEKRDITINEHIWYLFEYDCGQNWHANPAKGYPYYTFQHFTENGKLDRMRVLKESLLAINRNFNKNLCSWFAGMFTALSPSVEEQLTLQPEMLAALSSPHSRPINIILGLLKNLCSHPRFLTDDFLDQTTVLFASDVKAVHQNTLGVLSKLAKEKKEYRDTICCAAAQGLMSRDESTQNKIVKLIQTFGETESPTLKEALSAYAETMLTSTKKELAAYLKDNVSDALSTDKVLLTTLDEQASVASFDYEPMPPILREDNRIQEITSIEDLIFLASQILDSNELYHFDLFLNALVEWNEQLEAKHITQWTPVLQRAYKLLINGGSSRNGILDSMMATFLIDYAKLLIKRFPVEAKELSTLHEKMVQKDELQKGQWRYRNLQRITIRQKSNKRTEFPIHKQLLYRTLDLLESNENRLPMLSTPTHMPAFIDPIVLIKRLGQYQQANAEPDDIDMQIALSRMALNNYPSQDFPTVLQELKGEYQSLFSFLIGAKDAVPQAPFAHPSWWMTAGLIKSPETVYTEFKDFSYSKSSREFLTGNFSWWTFQTPHSYTDYHNKVVNWTSSTLSFNVPEGENIHIVNKGKYDERVSYHSYDPHPLLVEMYSQIERYDDIQNDLPRLVWLAPNTPEPLFVWCIRCAIYDPMLNEVREVGITQATIEALHQLRHEWHETSYLLEASCMLVADKTSRSYAAGIWTDRVNTGCIDSARIGRILGSHQRTGWGPLKRLTDLIQQQMINVSPLHNRELELLLTSLIAELPEQPVKELKKLLEIYSELLSVNNSRVTDERILQLLEIWKNTANLKKVIVSINR", "soluble on expression in E. coli": "not soluble"}, {"sequence": "TPDIQMTQSPSSLSASVGDRVTITVQASQDIIKHLNWYQQTPGKAPKLLIYEASNLQAGVPSRFSGSGSGTDYTFTISSLQPEDIATYYCQQYQSLPYTFGQGTKLQIT", "soluble on expression in E. coli": "soluble"}, {"sequence": "MEARAIVIIPDTLKVGFIIGGRRGQGLMSIKTPQNTWSQPVFVKLTGGSIGLQAGVQSSDVVLVFRNDRNLDNIVNGKFTLGADASVAAGPVGRNALAATDSELKAEIYSWSTARGLFAGIALDGAALQIDDSANLDVYGKGTTPRMIFEGRTAEPPSSDVIAFRDRLEEVTYTARNNLEHHHHHH", "soluble on expression in E. coli": "not soluble"}, {"sequence": "MGSDKIHHHHHHNSALEWLQRAASAAKEQNYSGIYVYHHGDEVEVLRVLHRNDGRREQEKTEVMDGTQRHFLRVNSDVYCHLADGKQVRLERNASRRFFPAFLPARAAGLAELYEVKLGGVERVAGRPCQVVMLEPRDGYRHAFQLWLDSRTGLPLKSRIVNSDGEVVSMFVFSEVQIGRPPDASLFRNELAGKQVQQVSLGQRIDLPWSVTPPPGFERVQEAVRTLPGRNTPVTHLVFSDGLSVLSMFIEPADPGVPSLQGLSAEGAIGVYARALDGHTITTVGEVPNLALIETGNSVRRK", "soluble on expression in E. coli": "not soluble"}, {"sequence": "GVDRDYLQSEYGVLKAGQCYKVVRSFRDYRNINYERGDVMRFLGSNFVPYESGLSLFFDKNGSERQIMLCVRPEFQMEIAHHLDSYFCKLDDN", "soluble on expression in E. coli": "soluble"}]}]}
